From article PMC8699310, “Development of a Low-Molecular-Weight Aβ42 Detection System Using a Enzyme-Linked Peptide Assay” (Biomolecules, 2021)
Ends that are not written are not given here.

Columns and labels:
[1] = molecular target: T1, Aβ42 (Homo sapiens, UniProt P05067); test: Spiking and recovery test of Aβ42; details: PBS, 100 μM peptide assay, triplicate
T1 construct: purchased Abcam ab120301
Experimental: PBS and human serum were used as solutions for the spiking test. Each of the Aβ42 and Aβ40 stock solutions was diluted using PBS, and the mixture was diluted using human serum. The diluted samples were added to antibody-coated plates and incubated for 2 h. The binding conditions used for the antibody coating and the peptide, streptavidin, and TMB treatment steps are described above. To calculate the recovery ratio, we divided the signals of the mixtures by the signals of Aβ42.

[2] = molecular target: T1, Aβ42; test: Binding of synthetic biotinylated peptide to Aβ42 captured on antibody-coated plate (enzyme-linked peptide assay, OD450); details: biotin-conjugated peptide serially diluted, 1 h, PBST, Aβ42 captured by anti-Aβ42 antibody (protein G plate), streptavidin-HRP/TMB, Hill-slope fitting, triplicate, read-out: dissociation constant (KD)
Experimental: ABPP was conjugated with biotin as a signal reporter, with a purity greater than 95%, as assessed using high-performance liquid chromatography. The binding affinities of peptides were estimated for each Aβ42- and antibody-coated plate. The coating methods followed the protocol described above, except for the use of PBST instead of TBST. After coating the plate with Aβ42, serially diluted peptide was added to the plate for 1 h. After peptide incubation, all wells were washed four times with PBST. Next, the wells were incubated with 100 µL of streptavidin-HRP (1:4000 in PBST) for 1 h. After incubation, the solution in the wells was washed four times with PBST. TMB solution was added to each well for 15 min. Next, 100 µL of 1 M H2SO4 was added to the wells to stop the reaction, and the absorbance was measured at 450 nm (OD450) using a microplate reader. To determine the detection range, serially diluted Aβ42 was added to the antibody-coated plates. After washing, the plate was incubated for 1 h with 100 µL of 100 µM peptide. Streptavidin and TMB treatment steps were performed as described above. Based on the measurements, the limit of detection (LOD) for the diagnostic system was calculated according to the formula from the IUPAC: LOD = 3 × SD/slope. To verify the specificity of our diagnostic system, other amyloid proteins were added to the antibody-coated plates. […]

T1 sequence (P05067 672-713 limits assumed): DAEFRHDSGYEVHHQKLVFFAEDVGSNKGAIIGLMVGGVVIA

Substance | Average Recovery ([1]; Aβ40 + Aβ42 = 10 + 40 ng/mL, SD 12.46%, %RSD 12.84) [%] | Average Recovery ([1]; Aβ40 + Aβ42 = 20 + 40 ng/mL, SD 5.81%, %RSD 6.053) [%] | Average Recovery ([1]; Aβ40 + Aβ42 = 40 + 40 ng/mL, SD 10.51%, %RSD 10.15) [%] | Kd [2] [µM]
Aβ42: Aβ42 (ab120301) purchased from Abcam; analyte spiked in recovery test | 97.02 | 96.04 | 104.5 | 
SEPQNIWQYLRN [ABPP] |  |  |  | 17.5 ± 2.98
